Measurements taken from the RNAGym collection of RNA variant scans (doi:10.7554/elife.90254).

B1: LINE1-full (parent)
chain: UACGUAGGUGGUUUUCCCCUGAUAGUGCUAAGGGGGCCUGGAAGUUUGGACUGGGCAGAGCUCAACACAGCGUGGCAAAGUGGCUGUGGCUAGACUGCCUCUCUGGAUUCCUCGUCACUCAGCAGGGCAUCUCUGAGAGAAAUGCC

Variants of: B1
Assay: self-cleavage, relative activity (ratio to wild type); higher = more cleavage; in vitro, sequencing; the parent is a self-cleaving ribozyme

Variant | self-cleavage
UACGUAGGUGGUUUUCCCCUGAUAGUGCUAAGGGGGCCUGGAAGUUUGGACUGGGCAGAGCUCAACACAGCGUGGCACAGUGGCUGUGGCUAGACCGCCUCUCUGGAUUCCUCGUCACUCAGCAGGGCAUCUCUGAGAGAAAUGCC [A78C U96C] | 0.29
UACGUAGGUGGUUUUCCCCUGAUAGUGCUAAGGGGGCCUGGAAGUUUGGACUGGGCAGAGCUCAACACAGCGUGGCACAGUGGCUGUGGCUAGACUGCCUCUCUGGAUUCCCCGUCACUCAGCAGGGCAUCUCUGAGAGAAAUGCC [A78C U112C] | 1.94
UACGUAGGUGGUUUUCCCCUGAUAGUGCUAAGGGGGCCUGGAAGUUUGGACUGGGCAGAGCUCAACACAGCGUGGCUAAGUGGCUGUGGCUAGACUGCCUCUCUGGAUUCCUCGUCACUCAGCAGGGCAUCGCUGAGAGAAAUGCC [A77U U132G] | 1.74
UACGUAGGUGGUUUUCCCCUGAUAGUGCUAAGGGGGCCUGGAAGUUUGGACUGGGCAGAGCUCAACACAGCGUGGCUAAGUGGCUGUGGCUAGACUGCCUCUCUGGAUUCCUCGUCACUCAGCAGGGCAUCCCUGAGAGAAAUGCC [A77U U132C] | 1.41
UACGUAGGUGGUUUUCCCCUGAUAGUGCUAAGGGGGCCUGGAAGUUUGGACUGGGCAGAGCUCAACACAGCGUGGCAGUGUGGCUGUGGCUAGACUGCCUCUCUGGAUUCCUCGUCACUCAGCAGGGCAUCUCUGAGAGAAAUGCC [A78G A79U] | 0.52
UACGUAGGUGGUUUUCCCCUGAUAGUGCUAAGGGGGCCUGGAAGUUUGGACUGGGCAGAGCUCAACACAGCGUGGCACAGUGGCUGUGGCUAGACUGCCUCUCUGGAUUCCUCGUCACUCAACAGGGCAUCUCUGAGAGAAAUGCC [A78C G122A] | 1.41
UACGUAGGUGGUUUUCCCCUGAUAGUGCUAAGGGGGCCUGGAAGUUUGGACUGGGCAGAGCUCAACACAGCGUGGCAGAGUGGCUGUGGCUAGUCUGCCUCUCUGGAUUCCUCGUCACUCAGCAGGGCAUCUCUGAGAGAAAUGCC [A78G A94U] | 0.19
UACGUAGGUGGUUUUCCCCUGAUAGUGCUAAGGGGGCCUGGAAGUUUGGACUGGGCAGAGCUCAACACAGCGUGGCAGAGUGGCUGUGGCUAGGCUGCCUCUCUGGAUUCCUCGUCACUCAGCAGGGCAUCUCUGAGAGAAAUGCC [A78G A94G] | 0.49
UACGUAGGUGGUUUUCCCCUGAUAGUGCUAAGGGGGCCUGGAAGUUUGGACUGGGCAGAGCUCAACACAGCGUGGCAGAGUGGCUGUGGCUAGACUGCCUCUCUGGAUUCCUCGUCACUCAGCCGGGCAUCUCUGAGAGAAAUGCC [A78G A124C] | 1.59
UACGUAGGUGGUUUUCCCCUGAUAGUGCUAAGGGGGCCUGGAAGUUUGGACUGGGCAGAGCUCAACACAGCGUGGCAGAGUGGCUGUGGCUAGACUGCCUCUCUGGAUUCCUCGUCACUCCGCAGGGCAUCUCUGAGAGAAAUGCC [A78G A121C] | 1.9
UACGUAGGUGGUUUUCCCCUGAUAGUGCUAAGGGGGCCUGGAAGUUUGGACUGGGCAGAGCUCAACACAGCGUGGCAGAGUGGCUGUGGCUAGACUGCCUCUCUGGAUUCCUCGUCACUCGGCAGGGCAUCUCUGAGAGAAAUGCC [A78G A121G] | 1.24
UACGUAGGUGGUUUUCCCCUGAUAGUGCUAAGGGGGCCUGGAAGUUUGGACUGGGCAGAGCUCAACACAGCGUGGCAGAGUGGCUGUGGCUAGACUGCCUCUCUGGAUUCCUCGUCACUCUGCAGGGCAUCUCUGAGAGAAAUGCC [A78G A121U] | 0.67
UACGUAGGUGGUUUUCCCCUGAUAGUGCUAAGGGGGCCUGGAAGUUUGGACUGGGCAGAGCUCAACACAGCGUGGCACAGUGGCUGUGGCUAGACUGCCUCUCUGGAUUCCUCGUCACUCAGCAGGGCAUCUCUGAGGGAAAUGCC [A78C A138G] | 1.84
UACGUAGGUGGUUUUCCCCUGAUAGUGCUAAGGGGGCCUGGAAGUUUGGACUGGGCAGAGCUCAACACAGCGUGGCUAAGUGGCUGUGGCUAGACUGCCUCUCUGGAUUCCUCGUCACACAGCAGGGCAUCUCUGAGAGAAAUGCC [A77U U119A] | 1.51
UACGUAGGUGGUUUUCCCCUGAUAGUGCUAAGGGGGCCUGGAAGUUUGGACUGGGCAGAGCUCAACACAGCGUGGCUAAGUGGCUGUGGCUAGACUGCCUCUCUGGAUUCCUCGUCACUCAGCAGGGCAGCUCUGAGAGAAAUGCC [A77U U130G] | 1.86
UACGUAGGUGGUUUUCCCCUGAUAGUGCUAAGGGGGCCUGGAAGUUUGGACUGGGCAGAGCUCAACACAGCGUGGCUAAGUGGCUGUGGCCAGACUGCCUCUCUGGAUUCCUCGUCACUCAGCAGGGCAUCUCUGAGAGAAAUGCC [A77U U91C] | 0.6
UACGUAGGUGGUUUUCCCCUGAUAGUGCUAAGGGGGCCUGGAAGUUUGGACUGGGCAGAGCUCAACACAGCGUGGCUAAGUGGCUGUGGCUAGACGGCCUCUCUGGAUUCCUCGUCACUCAGCAGGGCAUCUCUGAGAGAAAUGCC [A77U U96G] | 0.27
UACGUAGGUGGUUUUCCCCUGAUAGUGCUAAGGGGGCCUGGAAGUUUGGACUGGGCAGAGCUCAACACAGCGUGGCUAAGUGGCUGUGGCUAGACCGCCUCUCUGGAUUCCUCGUCACUCAGCAGGGCAUCUCUGAGAGAAAUGCC [A77U U96C] | 0.1
UACGUAGGUGGUUUUCCCCUGAUAGUGCUAAGGGGGCCUGGAAGUUUGGACUGGGCAGAGCUCAACACAGCGUGGCUAAGUGGCUGUGGCUAGACUGCCUCUCUGGAUUCCUCGUCACUCAGCAGGGCAUCUCAGAGAGAAAUGCC [A77U U134A] | 0.57
UACGUAGGUGGUUUUCCCCUGAUAGUGCUAAGGGGGCCUGGAAGUUUGGACUGGGCAGAGCUCAACACAGCGUGGCUAAGUGGCUGUGGCUAGACUGCCUCCCUGGAUUCCUCGUCACUCAGCAGGGCAUCUCUGAGAGAAAUGCC [A77U U102C] | 1.24

Variant | self-cleavage
UACGUAGGUGGUUUUCCCCUGAUAGUGCUAAGGGGGCCUGGAAGUUUGGACUGGGCAGAGCUCAACACAGCGUGGCACAGUGGCUGUGGCUAGACUGCCUCUCUGGACUCCUCGUCACUCAGCAGGGCAUCUCUGAGAGAAAUGCC [A78C U108C] | 2.16
UACGUAGGUGGUUUUCCCCUGAUAGUGCUAAGGGGGCCUGGAAGUUUGGACUGGGCAGAGCUCAACACAGCGUGGCUAAGAGGCUGUGGCUAGACUGCCUCUCUGGAUUCCUCGUCACUCAGCAGGGCAUCUCUGAGAGAAAUGCC [A77U U81A] | 1.89
UACGUAGGUGGUUUUCCCCUGAUAGUGCUAAGGGGGCCUGGAAGUUUGGACUGGGCAGAGCUCAACACAGCGUGGCACAGUGGCUGUGGCUAGACUGCCUCCCUGGAUUCCUCGUCACUCAGCAGGGCAUCUCUGAGAGAAAUGCC [A78C U102C] | 2.53
UACGUAGGUGGUUUUCCCCUGAUAGUGCUAAGGGGGCCUGGAAGUUUGGACUGGGCAGAGCUCAACACAGCGUGGCUAAGUGGCUGUGGCUAGACUGCCUCUCUGGAUUCCUCGCCACUCAGCAGGGCAUCUCUGAGAGAAAUGCC [A77U U115C] | 1.22
UACGUAGGUGGUUUUCCCCUGAUAGUGCUAAGGGGGCCUGGAAGUUUGGACUGGGCAGAGCUCAACACAGCGUGGCUAAGUGGCUGUGGCUAGACUGCCUCUCUGGAGUCCUCGUCACUCAGCAGGGCAUCUCUGAGAGAAAUGCC [A77U U108G] | 1.37
UACGUAGGUGGUUUUCCCCUGAUAGUGCUAAGGGGGCCUGGAAGUUUGGACUGGGCAGAGCUCAACACAGCGUGGCUAAGUGGCUGUGGCUAGACUGCCUCUCUGGAUUCCUCGUCACUCAGCAGGGCAUCUCUGAGAGAAACGCC [A77U U143C] | 1.04
UACGUAGGUGGUUUUCCCCUGAUAGUGCUAAGGGGGCCUGGAAGUUUGGACUGGGCAGAGCUCAACACAGCGUGGCUAAGUGGCUGUGGCUAGACUGCCUCUCUGGAUUCCUCGUCACUCAGCAGGGCAUCUCUGAGAGAAAGGCC [A77U U143G] | 1.48
UACGUAGGUGGUUUUCCCCUGAUAGUGCUAAGGGGGCCUGGAAGUUUGGACUGGGCAGAGCUCAACACAGCGUGGCUAAGUGGCUGUGGCUAGACUGCCUCUCUGGAUUCCUCGUCACUCAGCAUGGCAUCUCUGAGAGAAAUGCC [A77U G125U] | 1.5
UACGUAGGUGGUUUUCCCCUGAUAGUGCUAAGGGGGCCUGGAAGUUUGGACUGGGCAGAGCUCAACACAGCGUGGCUAAGUGGCUGUGGCUAGACUGCCUCUCUGGAUUCCACGUCACUCAGCAGGGCAUCUCUGAGAGAAAUGCC [A77U U112A] | 1.1
UACGUAGGUGGUUUUCCCCUGAUAGUGCUAAGGGGGCCUGGAAGUUUGGACUGGGCAGAGCUCAACACAGCGUGGCUAAGUGGCUGUGGCUAGACUGCCUCUCCGGAUUCCUCGUCACUCAGCAGGGCAUCUCUGAGAGAAAUGCC [A77U U104C] | 1.74
UACGUAGGUGGUUUUCCCCUGAUAGUGCUAAGGGGGCCUGGAAGUUUGGACUGGGCAGAGCUCAACACAGCGUGGCACAGUGGCUGUGGCUAGACUGCCUCUCUGGAUUCCUCGUCACUCGGCAGGGCAUCUCUGAGAGAAAUGCC [A78C A121G] | 2.59
UACGUAGGUGGUUUUCCCCUGAUAGUGCUAAGGGGGCCUGGAAGUUUGGACUGGGCAGAGCUCAACACAGCGUGGCACAGUGGCUGUGGCUAGACUGCCUCUCUGGAUCCCUCGUCACUCAGCAGGGCAUCUCUGAGAGAAAUGCC [A78C U109C] | 2.32
UACGUAGGUGGUUUUCCCCUGAUAGUGCUAAGGGGGCCUGGAAGUUUGGACUGGGCAGAGCUCAACACAGCGUGGCUAAGUGGCUGUGGCUAGACUGCCUCUCUGGAUCCCUCGUCACUCAGCAGGGCAUCUCUGAGAGAAAUGCC [A77U U109C] | 0.98
UACGUAGGUGGUUUUCCCCUGAUAGUGCUAAGGGGGCCUGGAAGUUUGGACUGGGCAGAGCUCAACACAGCGUGGCAGAGUGGCUGUGGCUAGACUGCCUCUCUGGAUUCCUCGUCGCUCAGCAGGGCAUCUCUGAGAGAAAUGCC [A78G A117G] | 0.89
UACGUAGGUGGUUUUCCCCUGAUAGUGCUAAGGGGGCCUGGAAGUUUGGACUGGGCAGAGCUCAACACAGCGUGGCUAAGUGGCCGUGGCUAGACUGCCUCUCUGGAUUCCUCGUCACUCAGCAGGGCAUCUCUGAGAGAAAUGCC [A77U U85C] | 0.09
UACGUAGGUGGUUUUCCCCUGAUAGUGCUAAGGGGGCCUGGAAGUUUGGACUGGGCAGAGCUCAACACAGCGUGGCUAAGUGGCUGUGGCUAGACUGCCUCUCUGGAUUCCUCGUCACUCAGCAGGACAUCUCUGAGAGAAAUGCC [A77U G127A] | 1.48
UACGUAGGUGGUUUUCCCCUGAUAGUGCUAAGGGGGCCUGGAAGUUUGGACUGGGCAGAGCUCAACACAGCGUGGCUAAGUGGCUGCGGCUAGACUGCCUCUCUGGAUUCCUCGUCACUCAGCAGGGCAUCUCUGAGAGAAAUGCC [A77U U87C] | 0.09
UACGUAGGUGGUUUUCCCCUGAUAGUGCUAAGGGGGCCUGGAAGUUUGGACUGGGCAGAGCUCAACACAGCGUGGCUAAGUGGCUGAGGCUAGACUGCCUCUCUGGAUUCCUCGUCACUCAGCAGGGCAUCUCUGAGAGAAAUGCC [A77U U87A] | 0.05
UACGUAGGUGGUUUUCCCCUGAUAGUGCUAAGGGGGCCUGGAAGUUUGGACUGGGCAGAGCUCAACACAGCGUGGCACAGUGGCUGUGGCUAGACUGCCUCUCUGGAUUCCUCGUCGCUCAGCAGGGCAUCUCUGAGAGAAAUGCC [A78C A117G] | 2.21
